B5: human VEGFR-2/Fc (R&D Systems) (Fc fusion)
chain: ASVGLPSVSLDLPRLSIQKDILTIKANTTLQITCRGQRDLDWLWPNNQSGSEQRVEVTECSDGLFCKTLTIPKVIGNDTGAYKCFYRETDLASVIYVYVQDYRSPFIASVSDQHGVVYITENKNKTVVIPCLGSISNLNVSLCARYPEKRFVPDGNRISWDSKKGFTIPSYMISYAGMVFCEAKINDESYQSIMYIVVVVGYRIYDVVLSPSHGIELSVGEKLVLNCTARTELNVGIDFNWEYPSSKHQHKKLVNRDLKTQSGSEMKKFLSTLTIDGVTRSDQGLYTCAASSGLMTKKNSTFVRVHEKPFVAFGSGMESLVEATVGERVRIPAKYLGYPPPEIKWYKNGIPLESNHTIKAGHVLTIMEVSERDTGNYTVILTNPISKEKQSHVVSLVVYVPPQIGEKSLISPVDSYQYGTTQTLTCTVYAIPPPHHIHWYWQLEEECANEPSQAVSVTNPYPCEEWRSVEDFQGGNKIEVNKNQFALIEGKNKTVSTLVIQAANVSALYKCEAVNKVGRGERVISFHVTRGPEITLQPDMQPTEQESVSLWCTADRSTFENLTWYKLGPQPLPIHVGELPTPVCKNLDTLWKLNATMFSNSTNDILIMELKNASLQDQGDYVCLAQDRKTKKRHCVVRQLTVLERVAPTITGNLENQTTSIGESIEVSCTASGNPPPQIMWFKDNETLVEDSGIVLKDGNRNLTIRRVRKEDEGLYTCQACSVLGCAKVEAFFIIEGAQEKTNLE
notes: also called recombinant VEGFR2/Fc; VEGFR/Fc; not shown: Fc part of the bought fusion; It was captured by goat anti-human IgG-Fc in the ELISA

For test [1], the target named is T1, human VEGFR2 (KDR) expressed on 293/KDR cells (human, UniProt P35968 20-1356). Nature of the test: flow cytometry on 293/KDR cells, detected with PE-streptavidin.
For test [2], the target named is T1, human VEGFR2 (KDR) expressed on 293/KDR …. As to the kind of experiment: flow cytometry on 293/KDR cells, S/N against the biotin-isotype control. A general note: In flow cytometry, cells or beads pass a laser one at a time.
In test [3] the target is B5. As to the kind of experiment: ELISA, VEGFR2/Fc captured by anti-human IgG-Fc, biotin-V21H4 detected with streptavidin-AP; antibody alone, not conjugated.
Test [4] concerns the target B5. Nature of the test: ELISA, VEGFR2/Fc captured on anti-human IgG-Fc, biotinylated antibody detected with streptavidin-alkaline phosphatase. Background: ELISA stands for enzyme-linked immunosorbent assay.
Test [5] deals with T2, mouse VEGFR-2/Fc (R&D Systems) (mouse, UniProt P35918 20-762).
T2 construct: not shown: Fc part of the bought fusion, not described
T2 sequence (P35918 20-762 limits assumed): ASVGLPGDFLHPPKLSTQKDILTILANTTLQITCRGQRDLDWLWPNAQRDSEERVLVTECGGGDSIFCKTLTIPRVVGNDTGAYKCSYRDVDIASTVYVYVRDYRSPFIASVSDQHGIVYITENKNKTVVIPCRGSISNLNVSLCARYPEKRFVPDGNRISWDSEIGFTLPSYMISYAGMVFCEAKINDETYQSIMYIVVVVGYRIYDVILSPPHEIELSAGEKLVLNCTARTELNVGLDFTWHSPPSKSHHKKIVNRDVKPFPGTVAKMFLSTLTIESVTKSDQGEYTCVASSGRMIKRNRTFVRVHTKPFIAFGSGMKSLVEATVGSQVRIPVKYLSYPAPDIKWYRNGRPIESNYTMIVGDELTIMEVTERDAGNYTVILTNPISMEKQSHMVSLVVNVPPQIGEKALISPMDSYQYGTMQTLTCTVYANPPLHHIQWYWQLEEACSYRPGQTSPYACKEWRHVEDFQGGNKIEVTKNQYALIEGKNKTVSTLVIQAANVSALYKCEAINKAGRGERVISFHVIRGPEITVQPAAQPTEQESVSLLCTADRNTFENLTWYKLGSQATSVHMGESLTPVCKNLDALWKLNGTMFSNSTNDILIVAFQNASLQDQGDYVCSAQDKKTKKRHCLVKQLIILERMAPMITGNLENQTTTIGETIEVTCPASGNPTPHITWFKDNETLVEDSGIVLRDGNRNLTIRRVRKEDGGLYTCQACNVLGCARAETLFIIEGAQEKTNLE
As to the kind of experiment: SPR (Biacore 3000), immobilized mouse VEGFR-2/Fc. On the technique in general: SPR reads the build-up and loss of mass on a sensor chip optically.

Test [6] addresses B5. As to the kind of experiment: SPR (Biacore 3000), sdAb monomer over amine-coupled human VEGFR-2/Fc, 25 C; constants estimated from transformed data (FIG. 3).
Test [7] has as its target B5. Nature of the test: SPR (Biacore 3000), sdAb monomer over amine-coupled human VEGFR-2/Fc, 25 C.
Test [8] has as its target T3, AB3m (SEQ ID NO:23)-DOS47 antibody-urease conjugate (jack bean (Canavalia ensiformis), UniProt P07374 1-840).
T3 construct: also called AB3-DOS47
As to the kind of experiment: ELISA, urease conjugates on VEGFR2/Fc.

In test [9] the target is T4, AB4 (SEQ ID NO:27)-DOS47 antibody-urease conjugate (jack bean (Canavalia ensiformis), UniProt P07374 1-840).
T4 construct: also called AB4-DOS47
T4 sequence (VHH, as listed by the source limits assumed, chain 1 of 2): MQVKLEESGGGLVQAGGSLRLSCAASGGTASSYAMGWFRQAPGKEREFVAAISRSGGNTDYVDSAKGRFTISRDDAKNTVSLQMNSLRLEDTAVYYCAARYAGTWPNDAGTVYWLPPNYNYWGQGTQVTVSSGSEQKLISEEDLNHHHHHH
T4 sequence (P07374 whole entry, chain 2 of 2): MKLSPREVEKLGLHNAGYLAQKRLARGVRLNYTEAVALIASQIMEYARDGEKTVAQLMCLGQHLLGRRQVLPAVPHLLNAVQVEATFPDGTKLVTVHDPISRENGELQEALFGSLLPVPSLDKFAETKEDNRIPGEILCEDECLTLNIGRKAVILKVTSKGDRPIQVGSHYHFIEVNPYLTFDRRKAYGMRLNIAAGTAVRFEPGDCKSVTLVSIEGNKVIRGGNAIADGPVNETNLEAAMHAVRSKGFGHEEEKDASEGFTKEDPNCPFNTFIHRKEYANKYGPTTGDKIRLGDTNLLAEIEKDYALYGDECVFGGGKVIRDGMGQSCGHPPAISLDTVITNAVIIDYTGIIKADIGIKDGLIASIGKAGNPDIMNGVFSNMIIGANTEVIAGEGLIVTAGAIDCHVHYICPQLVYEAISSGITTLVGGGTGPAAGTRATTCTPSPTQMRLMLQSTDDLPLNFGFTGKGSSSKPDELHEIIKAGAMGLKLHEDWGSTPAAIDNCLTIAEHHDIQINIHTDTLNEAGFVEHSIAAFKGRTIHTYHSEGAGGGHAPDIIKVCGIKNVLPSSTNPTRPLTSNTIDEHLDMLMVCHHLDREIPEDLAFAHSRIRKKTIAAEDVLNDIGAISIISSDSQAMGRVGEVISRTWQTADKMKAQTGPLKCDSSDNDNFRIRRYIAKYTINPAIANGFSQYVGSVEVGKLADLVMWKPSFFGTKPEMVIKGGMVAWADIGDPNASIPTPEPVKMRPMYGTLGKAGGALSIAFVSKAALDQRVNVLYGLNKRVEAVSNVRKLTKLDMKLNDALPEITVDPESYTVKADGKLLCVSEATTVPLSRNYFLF
Nature of the test: ELISA, urease conjugates on VEGFR2/Fc.

The target of test [10] is T5, AB2 (SEQ ID NO:13)-DOS47 antibody-urease conjugate (jack bean (Canavalia ensiformis), UniProt P07374 1-840).
T5 construct: also called AB2-DOS47
T5 sequence (P07374 whole entry): as the sequence (P07374 whole entry, chain 2 of 2) above
As to the kind of experiment: ELISA, urease conjugates on VEGFR2/Fc.

Test [11] addresses T6, AB1m (SEQ ID NO:9)-DOS47 antibody-urease conjugate (jack bean (Canavalia ensiformis), UniProt P07374 1-840).
T6 construct: also called AB1-DOS47
As to the kind of experiment: ELISA, urease conjugates on VEGFR2/Fc.

Test [12] deals with V21H4-DOS47 with 9.4 antibodies per urease (jack bean (Canavalia ensiformis), UniProt P07374 1-840). As to the kind of experiment: ELISA, VEGFR2/Fc captured on anti-human IgG-Fc, conjugate detected with anti-urease.
V21H4-DOS47 with 9.4 antibodies per urease, sequence (VHH, as listed by the source limits assumed, chain 1 of 2): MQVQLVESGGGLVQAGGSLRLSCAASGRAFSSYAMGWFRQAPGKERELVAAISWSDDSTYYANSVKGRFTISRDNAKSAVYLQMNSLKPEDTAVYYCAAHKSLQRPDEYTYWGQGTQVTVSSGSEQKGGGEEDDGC
V21H4-DOS47 with 9.4 antibodies per urease, sequence (P07374 whole entry, chain 2 of 2): as the sequence (P07374 whole entry, chain 2 of 2) above
In test [13] the target is T7, V21H4-DOS47 with 8.7 antibodies per urease (Canavalia ensiformis, UniProt P07374).
T7 construct: subunit of the homohexameric enzyme
T7 sequence (P07374 whole entry, chain 2 of 2): as above
The description is as above.

Test [14] deals with V21H4-DOS47 with 3.3 antibodies per urease (jack bean (Canavalia ensiformis), UniProt P07374 1-840). The test is described as above.
V21H4-DOS47 with 3.3 antibodies per urease, sequence (P07374 whole entry, chain 2 of 2): as above
Test [15] deals with V21H4-DOS47 with 1.4 antibodies per urease (jack bean (Canavalia ensiformis), UniProt P07374 1-840). Described as above.
V21H4-DOS47 with 1.4 antibodies per urease, sequence (P07374 whole entry, chain 2 of 2): as above
For test [16], the target named is V21H4-DOS47 with 2.3 antibodies per urease (jack bean (Canavalia ensiformis), UniProt P07374 1-840). The description is as above.
V21H4-DOS47 with 2.3 antibodies per urease, sequence (P07374 whole entry, chain 2 of 2): as above
Test [17] addresses T8, V21H4-DOS47 with 5.1 antibodies per urease (Canavalia ensiformis, UniProt P07374).
T8 construct: subunit of the homohexameric enzyme
Described as above.

Test [18] addresses T9, V21H4-DOS47 with 7.2 antibodies per urease (Canavalia ensiformis, UniProt P07374).
T9 construct: subunit of the homohexameric enzyme
The test is described as above.

Test [19] deals with T10, V21H4-DOS47 with 6.6 antibodies per urease (Canavalia ensiformis, UniProt P07374).
T10 construct: subunit of the homohexameric enzyme
T10 sequence (P07374 whole entry, chain 2 of 2): as above
Described as above.

In test [20] the target is T11, V21H4-DOS47 (V21H4, SEQ ID NO:6, conjugated to urease through BM(PEG)2) (jack bean (Canavalia ensiformis), UniProt P07374 1-840).
T11 construct: also called V21-DOS47
T11 sequence (P07374 whole entry, chain 2 of 2): as above
The test is described as above.

The target in test [21] is V21H1-DOS47 (V21H1, SEQ ID NO:3, conjugated to urease through SM(PEG)2) (jack bean (Canavalia ensiformis), UniProt P07374 1-840). The test is described as above.
V21H1-DOS47 (V21H1, SEQ ID NO:3, conjugated to urease through SM(PEG)2), sequence (VHH, as listed by the source limits assumed, chain 1 of 2): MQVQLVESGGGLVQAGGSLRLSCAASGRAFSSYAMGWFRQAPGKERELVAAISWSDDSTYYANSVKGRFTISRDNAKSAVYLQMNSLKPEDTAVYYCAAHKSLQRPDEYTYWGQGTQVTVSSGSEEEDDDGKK
V21H1-DOS47 (V21H1, SEQ ID NO:3, conjugated to urease through SM(PEG)2), sequence (P07374 whole entry, chain 2 of 2): as the sequence (P07374 whole entry, chain 2 of 2) above
Test [22] has as its target T3, AB3m (SEQ ID NO:23)-DOS47 …. As to the kind of experiment: ELISA, VEGFR3/Fc captured by anti-human IgG-Fc, conjugate detected with anti-urease.
Test [23] concerns the target T4, AB4 (SEQ ID NO:27)-DOS47 …. Described as above.
In test [24] the target is T5, AB2 (SEQ ID NO:13)-DOS47 …. The test is described as above.
Test [25] addresses T6, AB1m (SEQ ID NO:9)-DOS47 …. Described as above.

T6 sequence (VHH, as listed by the source limits assumed, chain 1 of 2): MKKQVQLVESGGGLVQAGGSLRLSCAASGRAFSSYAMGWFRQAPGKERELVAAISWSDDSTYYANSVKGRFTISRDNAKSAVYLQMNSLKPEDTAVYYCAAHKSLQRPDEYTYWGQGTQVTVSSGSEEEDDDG
T6 sequence (P07374 whole entry, chain 2 of 2): as the sequence (P07374 whole entry, chain 2 of 2) above
T3 sequence (VH, as listed by the source limits assumed, chain 1 of 2): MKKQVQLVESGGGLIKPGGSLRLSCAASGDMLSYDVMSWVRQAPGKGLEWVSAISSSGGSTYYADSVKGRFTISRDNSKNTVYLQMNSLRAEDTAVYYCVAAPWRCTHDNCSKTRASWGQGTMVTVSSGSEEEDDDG
T3 sequence (P07374 whole entry, chain 2 of 2): as the sequence (P07374 whole entry, chain 2 of 2) above
T9 sequence (P07374 whole entry, chain 2 of 2): as above
T8 sequence (P07374 whole entry, chain 2 of 2): as above

B1: biotin-V21H4 (biotinylated AB1 antibody, SEQ ID NO:6) (VHH)
VHH: QVQLVESGGGLVQAGGSLRLSCAASGRAFSSYAMGWFRQAPGKERELVAAISWSDDSTYYANSVKGRFTISRDNAKSAVYLQMNSLKPEDTAVYYCAAHKSLQRPDEYTYWGQGTQVTVSS
notes: also called V21H4 antibody alone; AB1C
One may read the EC50 as the concentration giving half of the maximal effect. A high value points to weaker potency. A word on the EC50 (read off the curve): it is the concentration at which the effect is half-maximal. Higher therefore signals weaker potency. On to B1, for which the results for the EC50 in [1] and in [3] were 1.6 nM and 1.8 nM, respectively. The “EC50 (read off the curve)” value in test [2] and in test [4] was roughly 2 nM throughout.

B2: AB1 with linker 2 (SEQ ID NO:7) (VHH)
VHH: QVQLVESGGGLVQAGGSLRLSCAASGRAFSSYAMGWFRQAPGKERELVAAISWSDDSTYYANSVKGRFTISRDNAKSAVYLQMNSLKPEDTAVYYCAAHKSLQRPDEYTYWGQGTQVTVSS
notes: also called VR2-21; V21 with c-Myc/His6 tail
The term Kd denotes the equilibrium constant for the complex coming apart. By koff is commonly meant the first-order rate constant of dissociation. A word on the kon: it is the rate constant with which the complex forms. Take B2: in test [5], the binding result is recorded as “no binding (tested: 150-200 nM)”. Also, in [6], the Kd is roughly 80 nM, the koff was less than 0.01 s⁻¹ and the kon was roughly 60000 M⁻¹ s⁻¹.

B3: AB4 with linker 2 (SEQ ID NO:27) (VHH)
VHH: QVKLEESGGGLVQAGGSLRLSCAASGGTASSYAMGWFRQAPGKEREFVAAISRSGGNTDYVDSAKGRFTISRDDAKNTVSLQMNSLRLEDTAVYYCAARYAGTWPNDAGTVYWLPPNYNYWGQGTQVTVSS
notes: also called VR2-38; V38 with c-Myc/His6 tail
For the molecule B3, the binding result in [5] is on record as “no binding (tested: 150-200 nM)”.

B4: AB3 with linker 2 (SEQ ID NO:21) (other)
VH: MQVQLVESGGGLIKPGGSLRLSCAASGDMLSYDVMSWVRQAPGKGLEWVSAISSSGGSTYYADSVKGRFTISRDNSKNTVYLQMNSLRAEDTAVYYCVAAPWRCTHDNCSKTRASWGQGTMVTVSSGSEQKLISEEDLNHHHHH
notes: also called VR2-801-45; V45 with c-Myc/His5 tail
In [7], B4 displayed a dissociation constant Kd of 900 nM, a koff of 0.045 s⁻¹ and a kon of 53000 M⁻¹ s⁻¹. In test [5], the binding result is on record as “no binding (tested: 150-200 nM)”.

On to B5, for which the binding result in test [8], in test [9], in test [10], in test [11], in test [12] and in test [13] was “binds” throughout. Moreover, the binding result in test [14], in test [15], in [16], in test [17], in [18] and in [19] was “binds” each time. The binding result in test [20] and in test [21] was “binds” throughout.

B6: AB2 with linker 2 (SEQ ID NO:13) (other)
VH: MQVQLVESGGGLIKPGGSLRLSCAASGFRFSAESMTWVRQAPGKGLEWVSAISSSGGSTYYADSVKGRFTISRDNSKNTVYLQMNSLRAEDTAVYYCVRSPKGCTHASCSWNSGSWGQGTLVTVSSGSEQKLISEEDLNHHHHH
notes: also called VR2-801-18; V18 with c-Myc/His5 tail
Turning to B6, in test [7], the affinity, expressed as Kd, was 500 nM; the koff turned out to be 0.02 s⁻¹; the kon came out at 46000 M⁻¹ s⁻¹. For the same molecule, the binding result in test [5] is listed as “no binding (tested: 150-200 nM)”.

B7: VEGFR3/Fc (R&D Systems) (Fc fusion)
chain: YSMTPPTLNITEESHVIDTGDSLSISCRGQHPLEWAWPGAQEAPATGDKDSEDTGVVRDCEGTDARPYCKVLLLHEVHANDTGSYVCYYKYIKARIEGTTAASSYVFVRDFEQPFINKPDTLLVNRKDAMWVPCLVSIPGLNVTLRSQSSVLWPDGQEVVWDDRRGMLVSTPLLHDALYLQCETTWGDQDFLSNPFLVHITGNELYDIQLLPRKSLELLVGEKLVLNCTVWAEFNSGVTFDWDYPGKQAERGKWVPERRSQQTHTELSSILTIHNVSQHDLGSYVCKANNGIQRFRESTEVIVHENPFISVEWLKGPILEATAGDELVKLPVKLAAYPPPEFQWYKDGKALSGRHSPHALVLKEVTEASTGTYTLALWNSAAGLRRNISLELVVNVPPQIHEKEASSPSIYSRHSRQALTCTAYGVPLPLSIQWHWRPWTPCKMFAQRSLRRRQQQDLMPQCRDWRAVTTQDAVNPIESLDTWTEFVEGKNKTVSKLVIQNANVSAMYKCVVSNKVGQDERLIYFYVTTIPDGFTIESKPSEELLEGQPVLLSCQADSYKYEHLRWYRLNLSTLHDAHGNPLLLDCKNVHLFATPLAASLEEVAPGARHATLSLSIPRVAPEHEGHYVCEVQDRRSHDKHCHKKYLSVQALEAPRLTQNLTDLLVNVSDSLEMQCLVAGAHAPSIVWYKDERLLEEKSGVDLADSNQKLSIQRVREEDAGRYLCSVCNAKGCVNSSASVAVEGSEDKGSMEI
notes: not shown: Fc part, captured by goat anti-human IgG-Fc; not described further
For the molecule B7, the binding result in test [22], in test [23], in test [24] and in test [25] was “no binding” in each case.

The record behind these values is US20180244784A1 (published 2018).
